From paper PMC8807474, “Single-Molecule Fluorescence Imaging Reveals GABAB Receptor Aggregation State Changes” (Frontiers in Chemistry, 2021)

B1: GBR2-EGFP (receptor, UniProt O75899 42-941, looked up)
chain: WARGAPRPPPSSPPLSIMGLMPLTKEVAKGSIGRGVLPAVELAIEQIRNESLLRPYFLDLRLYDTECDNAKGLKAFYDAIKYGPNHLMVFGGVCPSVTSIIAESLQGWNLVQLSFAATTPVLADKKKYPYFFRTVPSDNAVNPAILKLLKHYQWKRVGTLTQDVQRFSEVRNDLTGVLYGEDIEISDTESFSNDPCTSVKKLKGNDVRIILGQFDQNMAAKVFCCAYEENMYGSKYQWIIPGWYEPSWWEQVHTEANSSRCLRKNLLAAMEGYIGVDFEPLSSKQIKTISGKTPQQYEREYNNKRSGVGPSKFHGYAYDGIWVIAKTLQRAMETLHASSRHQRIQDFNYTDHTLGRIILNAMNETNFFGVTGQVVFRNGERMGTIKFTQFQDSREVKVGEYNAVADTLEIINDTIRFQGSEPPKDKTIILEQLRKISLPLYSILSALTILGMIMASAFLFFNIKNRNQKLIKMSSPYMNNLIILGGMLSYASIFLFGLDGSFVSEKTFETLCTVRTWILTVGYTTAFGAMFAKTWRVHAIFKNVKMKKKIIKDQKLLVIVGGMLLIDLCILICWQAVDPLRRTVEKYSMEPDPAGRDISIRPLLEHCENTHMTIWLGIVYAYKGLLMLFGCFLAWETRNVSIPALNDSKYIGMSVYNVGIMCIIGAAVSFLTRDQPNVQFCIVALVIIFCSTITLCLVFVPKLITLRTNPDAATQNRRFQFTQNQKKEDSKTSTSVTSVNQASTSRLEGLQSENHRLRMKITELDKDLEEVTMQLQDTPEKTTYIKQNHYQELNDILNLGNFTESTDGGKAILKNHLDQNPQLQWNTTEPSRTCKDPIEDINSPEHIQRRLSLQLPILHHAYLPSIGGVDASCVSPCVSPTASPRHRHVPPSFRVMVSGL
notes: GABAB receptor subunit 2 (GBR2, GABAB2); source: HEK293, transfected, expressed alone at low expression level, on cells

What was measured:
[1] = system: O75899; test: single-molecule photobleaching step counting (TIRFM); GBR1-EGFP co-expressed with unlabeled GBR2 in HEK293 cells; EGFP spots on the cell membrane; one bleaching step = one heterodimer, two steps = tetramer of two heterodimers (heterodimers to tetramer); resting state; also after 1 mM GABA …; details: other: single-molecule photobleaching step counting (TIRFM)
[2] = target: the molecule itself; test: single-molecule photobleaching step counting (TIRFM); GBR2-EGFP expressed alone at low expression level in HEK293 cells; EGFP spots on the cell membrane; monomer to homodimer

Molecule	percent of spots with one-step bleaching (single heterodimer) [1]	percent of spots with two-step bleaching (tetramer of two heterodimers) [1]	stoichiometry N [2]
GABAB receptor heterodimer GBR1-EGFP/GBR2	about 50% population	about 30% receptors	
B1			2
